Assays:
[1] = target: T1, N-terminal biotin tagged Peptide 3 (human, N-terminal biotin tag); test: OCTET RED label-free biosensor; biotinylated peptide on streptavidin-coated tips dipped into 1 uM antibody, binding monitored for 2.5 minutes
T1 construct: Immobilised on streptavidin biosensor tips; also called ANGPTL3 peptide
T1 peptide: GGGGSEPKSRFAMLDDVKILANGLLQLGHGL
Description: (§1) To assess the binding of the anti-ANGPTL3 antibody H4H1276S to peptides derived from the N-terminal coiled-coil region of ANGPTL3, a label-free biosensor binding assay was performed using OCTET® RED system (ForteDo, Inc.). […] The peptide-coated biosensor tips were then dipped into wells containing 1 μM of either anti-ANGPTL3 antibody H4H1276S or an isotype-matched negative control antibody, and binding was monitored for 2.5 minutes. It was observed that H4H1276S binds to the ANGPTL3 linear sequence defined by Peptide 2 but not the overlapping but distinct sequence defined by Peptide 3 (see also FIG. 1). The isotype control antibody also served as a positive control for loading of Peptide 1 (i.e., hANGPTL4 peptide) onto the biosensor, because this isotype control antibody specifically recognizes hANGPTL4.

[2] = target: T2, C-terminal biotin tagged Peptide 3 (human, C-terminal biotin tag); test: as above
T2 construct: Immobilised on streptavidin biosensor tips; also called ANGPTL3 peptide
T2 peptide: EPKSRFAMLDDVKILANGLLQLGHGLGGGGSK
Description: as §1

[3] = target: T3, N-terminal biotin tagged Peptide 2 (human, N-terminal biotin tag); test: as above
T3 construct: Immobilised on streptavidin biosensor tips; also called ANGPTL3 peptide
T3 peptide: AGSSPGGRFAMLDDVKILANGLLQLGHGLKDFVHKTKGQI
Description: as §1

[4] = target: T4, C-terminal biotin tagged Peptide 2 (human, C-terminal biotin tag); test: as above
T4 construct: Immobilised on streptavidin biosensor tips; also called ANGPTL3 peptide
T4 peptide: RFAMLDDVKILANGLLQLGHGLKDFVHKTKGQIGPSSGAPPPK
Description: as §1

[5] = target: T5, N-terminal biotin tagged Peptide 1 (human, N-terminal biotin tag); test: as above
T5 construct: Immobilised on streptavidin biosensor tips; also called control ANGPTL4 peptide; hANGPTL4 peptide
T5 peptide: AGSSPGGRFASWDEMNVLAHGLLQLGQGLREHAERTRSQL
Description: as §1

mANGPTL3(17-240)-His = target: T6, mANGPTL3(17-240)-His (Mus musculus, UniProt Q9R182 17-240); test: cell-based or functional assay
T6 sequence: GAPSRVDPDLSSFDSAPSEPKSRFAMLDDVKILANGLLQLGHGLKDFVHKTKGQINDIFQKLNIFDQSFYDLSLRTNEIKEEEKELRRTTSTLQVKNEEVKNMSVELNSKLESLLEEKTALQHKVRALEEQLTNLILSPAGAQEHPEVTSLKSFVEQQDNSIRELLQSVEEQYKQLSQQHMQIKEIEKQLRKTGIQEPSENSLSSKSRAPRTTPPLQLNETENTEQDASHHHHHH

hANGPTL3(17-169)-mFc = target: T7, hANGPTL3(17-169)-mFc (human); test: cell-based or functional assay
T7 chain: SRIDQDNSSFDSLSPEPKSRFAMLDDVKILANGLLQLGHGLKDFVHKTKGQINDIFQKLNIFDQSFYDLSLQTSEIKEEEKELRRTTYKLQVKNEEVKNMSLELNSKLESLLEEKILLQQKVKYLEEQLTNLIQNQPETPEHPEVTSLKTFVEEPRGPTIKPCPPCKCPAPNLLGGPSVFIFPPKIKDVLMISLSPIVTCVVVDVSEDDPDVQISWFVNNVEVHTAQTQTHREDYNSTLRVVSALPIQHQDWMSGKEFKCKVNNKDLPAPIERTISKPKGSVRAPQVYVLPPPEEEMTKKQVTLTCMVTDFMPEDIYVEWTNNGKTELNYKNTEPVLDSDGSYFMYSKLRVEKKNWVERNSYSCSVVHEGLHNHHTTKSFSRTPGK

- binding result [1]: no binding (tested: 1 uM)
- binding result [2]: no binding (tested: 1 uM)
- binding result [3]: binds
- binding result [4]: binds
- binding result [5]: no binding (tested: 1 uM)
- IC50, LPL bioassay, 500 nM constant mANGPTL3(17-240)-His (mANGPTL3(17-240)-His): 64 nM
- IC50, LPL bioassay, 80 nM constant hANGPTL3(17-169)-mFc (hANGPTL3(17-169)-mFc): 33 nM
B1: H4H1276S (antibody, IgG4, V domains shown)
VH: EVQLVESGGGVIQPGGSLRLSCAASGFTFDDYAMNWVRQGPGKGLEWVSAISGDGGSTYYADSVKGRFTISRDNSKNSLYLQMNSLRAEDTAFFYCAKDLRNTIFGVVIPDAFDIWGQGTMVTVSS
VL: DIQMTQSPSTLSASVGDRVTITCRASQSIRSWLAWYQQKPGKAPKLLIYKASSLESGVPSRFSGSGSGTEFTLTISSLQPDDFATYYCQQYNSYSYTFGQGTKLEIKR

From US20150197564A1 (Regeneron, published 2015)
